Results on 4 molecules are retold here after PMC5897841 (2017).

B2: CK2α kinase (enzyme)
chain: SGPVPSRARVYTDVNTHRPREYWDYESHVVEWGNQDDYQLVRKLGRGKYSEVFEAINITNNEKVVVKILKPVKKKKIKREIKILENLRGGPNIITLADIVKDPVSRTPALVFEHVNNTDFKQLYQTLTDYDIRFYMYEILKALDYCHSMGIMHRDVKPHNVMIDHEHRKLRLIDWGLAEFYHPGQEYNVRVASRYFKGPELLVDYQMYDYSLDMWSLGCMLASMIFRKEPFFHGHDNYDQLVRIAKVLGTEDLYDYIDKYNIELDPRFNDILGRHSRKRWERFVHSENQHLVSPEALDFLDKLLRYDHQSRLTAREAMEHPYFYTVVK

Holding throughout (test): ITC
The target in assay [1] is T1, cRAD-TPX2_((7–43)) display protein (Pyrococcus furiosus | human, UniProt O74036 108-287; O74036 302-349, K144A).
In assay [2] the target is T1, cRAD-TPX2_((7–43)) display protein. The source holds these as a separate data set.
For assay [3], the target named is T2, Aurora A_(D274N) kinase domain (human, UniProt O14965 122-403, D274N).
T2 sequence: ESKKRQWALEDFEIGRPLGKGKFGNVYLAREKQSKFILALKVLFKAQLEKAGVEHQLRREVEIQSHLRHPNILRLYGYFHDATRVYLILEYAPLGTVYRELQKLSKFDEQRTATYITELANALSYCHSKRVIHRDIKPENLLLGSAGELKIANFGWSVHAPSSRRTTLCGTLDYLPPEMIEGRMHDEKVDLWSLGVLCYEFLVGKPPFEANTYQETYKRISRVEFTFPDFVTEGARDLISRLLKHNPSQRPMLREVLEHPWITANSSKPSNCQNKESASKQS

Assay [4] addresses cRAD-CK2β_((186–200)) display protein (Pyrococcus furiosus | human, UniProt O74036 108-287; P67870 186-200; O74036 302-349, K144A).
The assay “CK2α kinase” concerns the target B2.

B1: Aurora A wild-type kinase domain (untagged) (domain or fragment)
chain: FEIGRPLGKGKFGNVYLAREKQSKFILALKVLFKAQLEKAGVEHQLRREVEIQSHLRHPNILRLYGYFHDATRVYLILEYAPLGTVYRELQKLSKFDEQRTATYITELANALSYCHSKRVIHRDIKPENLLLGSAGELKIADFGWSVHAPSSRRTTLCGTLDYLPPEMIEGRMHDEKVDLWSLGVLCYEFLVGKPPFEANTYQETYKRISRVEFTFPDFVTEGARDLISRLLKHNPSQRPMLREVLEHPWI
For the molecule B1, in assay [1], the Kd was determined as 0.0159 µM. This molecule also gave a Ka in assay [2] of 6.27e+07 M⁻¹. Regarding LSYSYDAPSDFINFSSLDDEGDTQNIDSWFEEKANLENLKGGGCQM [linear TPX2_((7–43)) peptide], the Ka in assay [3] came to 8.71e+06 M⁻¹. In the case of B2, the Ka in assay [4] came out at 7.13e+06 M⁻¹. Regarding RLYGFKIHPMAYQLQ [synthetic linear CK2β_((186–200)) peptide], in the assay with CK2α kinase, the Ka amounted to 7.27e+06 M⁻¹.
